# Experimental data: the DeepSol protein solubility set
# Test: soluble on expression in E. coli; label from the status in PepcDB or PDB records
row,Sequence,soluble on expression in E. coli
1,MRNTIEIEDPNHRPFTISSNYAYYIGYLDLRPDGMGYHKRGEMNGLWYPPLRVLKNIYVSDGKTVFKPAHAEIGYSEARFEFYGTTLQISFQDDNDFEIAVKNASNDVRKLIVELHPETVWYTVNDTRIKVNRRSAIIYSHMFPETRLRIAASSEFSIENGRLSLLADGKSSLRISSACLHSHRPPIRVNRYRDIDRFSLLRGGGQIGENFRTAKDNLIRLSLINQETGYGLTAGHPDFPWYFGIDTLLSFNGILDAGLFELAFGSLNILARYSKSGKIPHEILTSGKVYNDGDLEETALFPYAVFKYAEWAGYTEEMRHLATIASESFNYLFAHGFQGRGIMEDPKAGEGVDIDTISFTIMSLMELQKVMDMDQEAFGGIADAVKPTEAIDALRKTVQSFWMSERRTFANRIVDGVPVDLGFWTSIIPFYTGIAGIDQYRKFVSDGGGLSRISSSSGIVVDASGNSMPVNTGMFVLGSIRYGDAENAARYFKMLDRSLGLFSPGAYPEISNNPQGCYLQAWSAAIYIESIVEGFFGIHSEGGRLISKPFNSSLMPGGATLKNVRFRNKYYDFIL,not soluble
2,MRPLILSIFALFLAGCTHSQQSMVDTFRASLFDNQDITVADQQIQALPYSTMYLRLNEGQRIFVVLGYIEQEQSKWLSQDNAMLVTHNGRLLKTVKLNNNLLEVTNSGQDPLRNALAIKDGSRWTRDILWSEDNHFRSATLSSTFSFAGLETLHIAGRDVLCNVWQEEVTSTLPEKQWQNTFWVDSATGQVRQSRQMLGAGVIPVEMTFLKPAP,not soluble
3,MRPMALPAWREVALPHEDIRRGRFDESTFAADLADVLAGRGPLEYRDPLTFFRKTYPTKGMVRLLGAVVRRLSGEKGGEPVVQIQTPFGGGKTHGLVALYHLFRSGEEARGTELYARVLEEAGVERIPEAKVAVFVGTAADPLKGRTPWGELALQLGHYGLLEEHDKARQAPGKERLYELFRAAGGPVLILMDEVAEYVARTVDPTALHKEGGSLEGGRAYQTQVLAFFQELTEAVKVAPQVALVMTIPSSAPYGEEGERALLQLQRIAGRLEAIYEPVKGWEIYDVIRTRLFEGIRDEGVVRKVAERYFELYRRLGTEVPDEARDPAYRERMRRAYPFHPELIDALYERWGTLSTFQRTRGVLRFLAEIVADLYGREHSAPLIHSAHVNLANPSIRRELVKHIGNEFDSVIAADIADPEGQAKAQRLDREMGSEYVRFQVASGLATAIFLYSFSGGERKGASPAQLRLAALRPEVPPPLVGDALGRLRELLWYLHEASGLYYFSSQPNLNRIVVERENAVDPEQIRQALRERLERIAGRELRVYLEPHSPQDVPDTKELKLAVLSEPSGSLAEELLEKAGTTFRTYKNTLFLLSPDPNSLGDLHRAARRYLALRSIREDRTLYGQLSAENRHRLDELLREADGALTQKLFMAYRRLTKPGRQGPETYDMGIPTVGEASTLAKRVYEYLKAREFLLERIAPRHLLSALAQGETGKPLQEVYEAFLRYPHLPVLKGWEVLEEAVRKGVAEGTFGLRVGERYYFQEPVLGIAWEEAFLVRKEALPPERESVVDGEKKGEASSEGVAPKPDSSEEEVPPDSSGGEARPERVQEYTVKVRLPWNRLSDFLRGVLMPLQREGAEMELQIELRARSQEGIPRATLDKIRETLDQLQAKVEEA,soluble
4,MRPVLLLCCLFLSATAQAEDCSPQTSVGSWCELPLAALHPTQQNVGLLQVEDDQAKLAGKKPKALERYLRKKEIPVVIGPGGRFYLTDRHHLSSALWRLDPKQGVPVKVIGRLPQASDFWEKMQENHWVWLHDARGAEIPPEALPDALAGLGDDPYRALAGYAEDENAFDKDRQSYFIEFHWARYFGERMHWRPISRATLPDDLKQALRLACEPAARELPGYRQDCPH,soluble
5,MRRAGLGEGVPPGNYGNYGYANSGYSACEEENERLTESLRSKVTAIKSLSIEIGHEVKTQNKLLAEMDSQFDSTTGFLGLCPM,soluble
6,MRRICKDERRIQSVNSSEEIAVSGMSAGRSAMRMGPAELVQAAAMARRFYLEGKSKIQIAEEFGVSRFKVARVLETALERDLVRIEIRVPAELDAERSDALRARYGLRHAVVVESPADAEETPDPENLGEVAADLLGELVNEGDVLGLAWGRSTIHMAAALDRLPPCTVVQLTGVYDAGTAERGSVEAVRRAAQVSGGDAHPIYAPMLLPDAATAQALRHQTGIARAFEYFDKVTVACVSIGSWEPGISTVHDMLSDEERAHYASLGVAAEMSAHLFDAEGRRVGRDLGERCITVKADQLRRIPEVVAIAGGQRKAAAIDAVLRSGLVTSLVTDTSAADYLMTVGSAPKSTLNRTDPDGI,not soluble
7,MRRILSVLLENESGALSRVVGLFSQRAFNIESLTVAPTDDPTLSRMTIEAVGDAQALEQIEKQLHKLVDVFKVVNLSEQEHIEREIVLAKVRAVGSSRDEIKRLADIFRGQIVDVTPKSYTIQLSGTNDKVDAFISALKEETTLLEIVRSGLISVSRGEKNILLEHHHHHH,not soluble
8,MRRLGKQEIEDIAVGAALLGTGGGGDPYIGKLMALQAIEEYGPIQLLSVDEIDDEAVVVPSGMMGAPTVMIEKVPNGEEAIAAFQTLEQYLGKKIFATMPIEAGGINSLLPLALAARLGLPVVDVDGMGRAFPELQMVTFYLDGISATPLVIADEKGNHSVLNTVNNMWAERIARAATIQMGGSVMMAIYPMVGKQLKESGIHHILKLEEDIGRIIREAKGTNANPIAEVLSLVGGFELFKGKVVDINRKTESGFARGTAHIQGFDLYHDQTLEIKFQNEHLLAKTPDQLLCVTPDLIAILDSETGLPITTEGLKYGARCVVIGIPCHPKWRTAKGIETCGPAYFGYDVDYVPVENLVKEGAQTKLEHHHHHH,soluble
9,MRRNKRERQELLQQTIQATPFITDEELAGKFGVSIQTIRLDRLELSIPELRERIKNVAEKTLEDEVKSLSLDEVIGEIIDLELDDQAISILEIKQEHVFSRNQIARGHHLFAQANSLAVAVIDDELALTASADIRFTRQVKQGERVVAKAKVTAVEKEKGRTVVEVNSYVGEEIVFSGRFDMYRSKHSLEHHHHHH,soluble
10,MRSGQMEIIIGWLYPQLMSTYGDRGNVIIIERRAQWREYNVTVLPLDQNSTPDDLKSVDVIVGGGAQDRQQEIVMRDLQGAKADAMREKIENGTPGVFTCGSPQLLGHYYEPGFGQRIEGLGILDLVSIHPGENTKRCIGNLVIEVTASRFAQELEAMTGTKPYLVGFENHGGRTKLGKVEALGRVVYGLGNNGEDGTEGAFYQNAIATYSHGPLLPKNPFVADWLIQTALRLKYQEEIQLSPLNDTLAMQGREAMFKRLKVNLPLAGRI,not soluble
11,MRTLAIDIGGTKIALAIVEEGTIIQRYQIATPVVQDVTKFVQAILEKVTEWLPSIDYVGVSTTGYVTPEGITSINPETLNFPVPFPLAQTLEQLTNKPVSILNDAQAAAWFEFVQLKNPSLNMAFITVSTGVGGGIIIDGKLHKGNSGLAGHIGHMSVAIEGPLCGCGQRGCVESMASGNAIQKESEATFTETMSNVELFKQAAFNPKAEAIINRSVQAVATLCCNLKACLDLDIIVLGGGIGLAEGYLERLNKAIQSRPSVFHIPVTPAHGDYDACLLGAAFQFKE,not soluble
12,MRTLFLELMEQYVVAKNPKLMLRRSETVVERMLSNWMSICLYQYLKDSAGEPLYKLFKAIKHQVEKGPVDAVQKKAKYTLNDTGLLGDDVEYAPLTVSVIVQDEGIDAIPVKVLNCDTISQVKEKIIDQVYRTQPCSCWPKPDSVVLEWRPGSTAQILSDLDLTSQREGRWKRINTLMHYNVRDGATLILSKVGVSQQPEDSQQDLPGERHALLEEENRVWHLVRPTDEVDEGKSKRGSMKEKERTKAITEIYLTRLLSVKGTLQQFVDNFFQSVLAPGHAVPPAVKYFFDFLDEQAEKHDIRDEDTIHIWKTNSLPLRFWVNILKNPHFIFDVHVHEVVDASLSVIAQTFMDACTRTEHKLSRDSPSNKLLYAKEISTYKKMVEDYYKGIRQMVQVSDQDMNTHLAEISRAHTDSLNTLVALHQLYQYTQKYYDEIINALEEDPAAQKMQLAFRLQQIAAALENKVTDL,not soluble
13,MRTLLLAGGLLVLSGCSLLMPTPDPNRAWVDLDTQPDADLAAVEVDDKSWDRTRYFEVDPGTRELTVRYQFTVDPTNIGPVDSPLWRDCQLNLKFKDFSAGQRYRLEAGHIGFRPWAKLYDQDNRELARGREGRCAKV,not soluble
14,MRTRIDYLADKYCFTERNESPRLRRQWQDVLEECRQTEAGPEERLRIALLNVDYVTSFELPFRLLLTRTPQLIAALREEWGISQKNVVFNDKRFGCVYSLKASLSGVPDTYRYHLSHRIRRVVGNENTSLPYQQVAREVKAPRERLKYALEAGLLVTALDGLFRFGSQRIAADVLRLRKAGMPVVTTTVEVHDNLTGTTRKVPAYHL,not soluble
15,MRTVIFDLDGTLADTSGDLLAAANHCFRDMGLGDVLVPGQDAGIALRGGRMMLTRGLERVGAYDAATVERYYPVLLEAYRGAIDHHSFLYPGAMDAVEELRRAGYGVGICTNKPEALADLLLQRLGVRDAFAALIGADTLPVRKPDPEPLRAAARAAGGDPAACVLVGDSDTDRNTARAAGVPSILVTFGPSGDDMAALEPEALLERFEDLPHVVTRLIG,not soluble
16,MRVAVVGATGAVGREILKVLEARNFPLSELRLYASPRSAGVRLAFRGEEIPVEPLPEGPLPVDLVLASAGGGISRAKALVWAEGGALVVDNSSAWRYEPWVPLVVPEVNREKIFQHRGIIANPNCTTAILAMALWPLHRAFQAKRVIVATYQAASGAGAKAMEELLTETHRFLHGEAPKAEAFAHPLPFNVIPHIDAFQENGYTREEMKVVWETHKIFGDDTIRISATAVRVPTLRAHAEAVSVEFARPVTPEAAREVLKEAPGVEVVDEPEAKRYPMPLTASGKWDVEVGRIRKSLAFENGLDFFVVGDQLLKGAALNAVQIAEEWLKGA,soluble
17,MRVIKIQTKGDVRISYAIETIRINEWTKAIAEVIFEKDGVPEWEIEAVSRMSSDYVGSLGSEFEILDVSIDRRTNSYKIKGKYEGFYLAGTPIEAIEKDIVESVLSLRFESLDVYEVNIEDPFEDYDPSEYWELMDWEELEHHHHHH,not soluble
18,MRVMAFVQARMGSTRLPGKSLMPVWNGMGVLEMTLRRALRARTLSGVVLCTSTDPACDALETLASGLGVQAFRGPEDDVLTRYALATERFEPDAVVRICADSPLVCPEGIDALVAFFRDEGLDYAAHAMDGTGLPDGLGCEVFTAAALAQAHAEATAPEDREHVSLFIRHRPERFRQATLAADAALRAPGVSLDVDTQDDLDALRRFIMALPPSEGPFWSADAIAPLARGLHTPPQGTSMDIASDDYHDFFIRDGKLIGEFEQMYRKSRHAPWHQDEACDKWFNKVSAALVGHALDDPSVRTVFEVGSGLGYFLSQFAGEGRTLTGTDVSATAVEKARALFPGISFEVDDIRFEGRRGPYDLCLMQAVCWCIFPHMDDVVRNVTATVRPGGYLFLGECFQPLDGPFAGKDVIPTPDALIGHFSHAFDTVADVRVTRGEMGGGPIIYWLGRRRGLEHHHHHH,soluble
19,MRVSGSASSQDIISRINSKNINNNDSNEVKRIKDALCIESKERILYPQNLSRDNLKQMARYVNNTYVHYSGNCVLLSACLHYNIHHRQDILSSKNTASPTVGLDSAIVDKIIFGHELNQSYCLNSIDEVEKEILNRYDIKRESSFIISAENYIAPIIGECRHDFNAVVICEYDKKPYVQFIDSWKTSNILPSLQEIKKHFSSSGEFYVRAYDEKHD,not soluble
20,MRWNICVVGAGKIGQMIAALLKTSSNYSVTVADHDLAALAVLNRMGVATKQVDAKDEAGLAKALGGFDAVISAAPFFLTPIIAKAAKAAGAHYFDLTEDVAATNAVRALAEDSQTAFMPQCGLAPGFVGIAGAALAAEFDEIDSLHMRVGALPLYPTNALKYNLTWSTDG,not soluble
